In US8030017B2, “Thermostable luciferases and methods of production” (Promega Corporation, priority 1997, dated 2011):
Numbering of substitutions follows the chain as printed.

B1: 49-6c10: mutant luciferase, SEQ ID NO:15 (protein)
chain: MEDKNILYGPEPFYPLADGTAGEQMFYALSRYADISGCIALTNAHTKENVLYEELLKLSCRLAESFKKYGLKQNDTIAVCSENGLQFFLPIIASLYLGIIAAPVSDKYIERELIHSLGIVKPRIIFCSKNTFQKVLNVKSKLKYVETIIILDLNEDLGGYQCLNNFISQNSDINLDVKKFKPYSFNRDDQVALVMFSSGTTGVSKGVMLTHKNIVARFSHAKDPTFGNAINPTTAILTVIPFHHGFGMMTTLGYFTCGFRVVLMHTFEEKLFLQSLQDYKVESTLLVPTLMAFFAKSALVEKYDLSHLKEIASGGAPLSKEIGEMVKKRFKLNFVRQGYGLTETTSAVLITPNNDVRPGSTGKIVPFHAVKVVDPTTGKILGPNETGELYFKGDMIMKGYYNNEEATKAIINKDGWLRSGDIAYYDNDGHFYIVDRLKSLIKYKGYQVAPAEIEGILLQHPYIVDAGVTGIPDEAAGELPAAGVVVQTGKYLNEQIVQNFVSSQVSTAKWLRGGVKFLDEIPKGSTGKIDRKVLRQMFEKHTNG
modifications: Mutant luciferase
B2: 49-7a5: mutant luciferase, SEQ ID NO:17 (protein)
chain: B1 chain with L55F, H220I, F294L
modifications: Mutant luciferase
B3: 49-0g12: mutant luciferase, SEQ ID NO:16 (protein)
chain: B1 chain with L55F, A216V, H220L, N412T
modifications: Mutant luciferase
B4: 85(86)-4f12: mutant luciferase, SEQ ID NO:23 (protein)
chain: MADKNILYGPEPFYPLADGTAGEQMFDALSRYADIPGCIALTNAHTKENVLYEEFLKLSCRLAESFKKYGLKQNDTIAVCSENGLQFFLPVIASLYLGIIVAPVNDKYIERELIHSLGIVKPRIIFCSKNTFQKVLNVKSKLKSVETIIILDLNEDLGGYQCLNNFISQNSDINLDVKKFKPYSFNRDDQVALIMFSSGTTGLPKGVMLTHKNIVARFSLAKDPTFGNAINPTTAILTVIPFHHGFGMMTTLGYFTCGFRVVLMHTFEEKLFLQSLQDYKVESTLLVPTLMAFLAKSALVEKYDLSHLKEIASGGAPLSKEIGEMVKKRFKLNFVRQGYGLTETTSAVLITPKXXARPGSTGKIVPFHAVKVVDPTTGKILGPNEPGELYFKGPMIMKGYYNNEEATKAIIDNDGWLRSGDIAYYDNDGHFYIVDRLKSLIKYKGYQVAPAEIEGILLQHPYIVDAGVTGIPDEAAGELPAAGVVVQTGKYLNEQIVQDFVSSQVSTAKWLRGGVKFLDEIPKGSTGKIDRKVLRQMFEKHTNG
modifications: not fully specified; X: residue not identified in the source
B5: 78-1e1-: mutant luciferase, SEQ ID NO:21 (protein)
chain: MADKNILYGPEPFYPLADGTAGEQMFDALSRYADIPGCIALTNAHTKENVLYEEFLKLSCRLAESFKKYGLKQNDTIAVCSENGLQYFLPVIASLYLGIIAAPVSDKYIERELIHSLGIVKPRIIFCSKNTFQKVLNVKSKLKYVETIIILDLNEDLGGYQCLNNFISQNSDINLDVKKFKPNSFNRDDQVALVMFSSGTTGVPKGVMLTHKNIVARFSIAKDPTFGNAINPTTAILTVIPFHHGFGMMTTLGYFTCGFRVVLMHTFEEKLFLQSLQDYKVESTLLVPTLMAFLAKSALVEKYDLSHLKEIASGGAPLSKEIGEMVKKRFKLNFVRQGYGLTETTSAVLITPKXXARPGSTGKIVPFHAVKVVDPTTGKILGPNEPGELYFKGAMIMKGYYNNEEATKAIIDKDGWLRSGDIAYYDNDGHFYIVDRLKSLIKYKGYQVAPAEIEGILLQHPYIVDAGVTGIPDEAAGELPAAGVVVQTGKYLNEQIVQNFVSSQVSTAKWLRGGVKFLDEIPKGSTGKIDRKVLRQMFEKHTNG
modifications: not fully specified; X: residue not identified in the source
B6: 78-2b4: mutant luciferase, SEQ ID NO:22 (protein)
chain: B5 chain with Y87F, I109V, I173S, I220L, P386T
modifications: not fully specified; X: residue not identified in the source

Key:
[1] = Robotic quantitative screen of E. coli lysates: luminescence activity (Li), expression/specific activity; assay type: biochemical; conditions: relative value
Method: A plate containing cells is retrieved from the carousel and placed on the shaker for 3-5 minutes to fully mix the cells. The cells tend to settle from solution upon standing.
To measure Optical Density (O.D.), the plate is moved from the shaker to the locator near the luminometer; the lid is removed and the plate placed into the luminometer. The O.D. is measured using a 620 nm filter.
To prepare a cell lysate, the plate of cells is first retrieved from the refrigerator and mixed on the shaker to resuspend the cells. A new plate from the carousel without a lid is placed in the reagent dispenser and 20 μl of Buffer A is added to each well. This is placed in the pipetting station.
The plate is then moved to the reagent dispenser to add 175 μl of Buffer B, and then mixed on the shaker for about 15 minutes or more. The combination of the freeze/thaw and Buffer B will cause the cells to lyse.
(§1) One daughter plate is placed in the luminometer and the 1X assay method is used. After the assay, the plate is placed in the ambient incubator, and the second daughter plate is placed in the luminometer. For the second plate, the 0.02X assay method is used. This plate is discarded, and the first plate is returned from the incubator to the luminometer. The repeat assay method is used (i.e., no reagent is injected). Afterwards, the plate is again returned to the ambient incubator.
1X Assay reagent: 5 μM Luciferin; 175 μM ATP; 20 mM Tricine, pH 8.0; 0.1 mM EDTA
(§2) The following criteria were used for screening purposes. The temperature chosen for the enzyme stability parameter was such that the parent enzyme would decay 100 to 1000 fold over 10 hours (see Table 1). Criteria 1 is achieved manually; data for criteria 2-6 is generated by robotic analysis. For all criteria, the maximum value as described is selected. • 1. In vivo screen. The brightest clones are selected at a given temperature. • 2. Expression/specific activity. The value for normalized luminescence is calculated as the ratio of luminescence to optical density. The value is reported as the ratio with the reference value. • 3. Enzyme stability. Measurements of normalized luminescence of the incubated samples (3 taken over about 15 hours) are fitted to In(L)=In(L0)−(t/τ), where L is normalized luminescence and t is time. τ is a measure of the enzyme stability. The value is reported as the ratio with the reference value, and the correlation coefficients are calculated. • 4. Substrate binding. Measurements of normalized luminescence with 1X and 0.02X are taken at the initial reading set, and 1X and 0.06X are taken at the 5 hour set. The ratio of the 0.02X:1X and 0.06X:1X gives the relative luminescence at 0.02X and 0.06X concentrations. These values, along with the relative luminescence at 1X (i.e., 1), are fitted to a Lineweaver-Burk plot to yield the Km:app,total for the substrates ATP, luciferin, and CoA. The values are reported as the inverse ratio with the reference value, and the correlation coefficients are calculated. • 5. Signal stability. The luminescence of the initial IX luminescent reactions are re-measured 3 additional times over about 15 hours. These values are fitted to In(L)=In(L0)−(t/τ) and the integral over t (15 hours) is calculated. Signal stability is then calculated as S=(1−int(L)/L0t)^2. The values are reported as the inverse ratio with the reference value, and the correlation coefficients are calculated. • 6. Composite fitness. The values of criteria 2 through 5 are combined into a single composite value of fitness (or commercial utility). This value is based on a judgment of the relative importance of the other criteria. This judgment is given below:
Normalize luminescence data: For each measurement of luminescence in the eight daughter plates, the normalized luminescence is calculated by dividing the relative light units by the optical density of the original plate. […]

[2] = Robotic quantitative screen of E. coli lysates: enzyme stability (tau) at elevated temperature; assay type: physicochemical; conditions: relative value
Method: Two white assay plates (Labsystems #9502887) are obtained from the plate feeder and placed in the pipetter. The incubation plate from the shaker is placed in the pipetter, and the lid removed and placed on the nearby locator. Two daughter plates are made using the pipetting procedure (see “Create Pair of Daughter Plates from Incubation Plate”). Afterwards, the lid is replaced on the parent plate, and the plate is placed in a high temperature incubator. [ranging from 31° C. to about 65° C. depending on the clone.]
To begin the second set of measurements, the plate from the high temperature incubator is placed in the shaker to mix.
In the final set of measurements, the plate from the high temperature incubator is again placed in the shaker to mix.
as §2
Calculate enzyme stability (τ): For each sample, use linear regression to fit In(L1x)=In(L0)−(t/τ) using the three luminescence measurements with 1X substrate concentrations (Plates 1, 5, 8). Also calculate the regression coefficient.
Calculate the reference-normalized values: For the criteria parameter of each sample, a reference-normalized value is determined by calculating the ratio or inverse ratio with the respective reference value. The reference-normalized values are Li/Lir, τ/τr, Kmr/Km:app,total, and Sr/S, where reference values are calculated from the equations of the appropriate reference surface.
“Enzyme stability” was determined by the rate of activity loss from cell lysates over 10 hours. In successive rounds of evolution the incubation temperature of the lysates was increased.
Robotic Automation: Robotic automation was used in the quantitative screens to accurately perform the large number of required quantitative assays on the cultured cells. […]

[3] = Robotic quantitative screen of E. coli lysates: signal stability (S), sustained enzymatic turnover; assay type: biochemical; conditions: inverse ratio with reference
Method: as §1
The plate in the ambient incubator is returned to the luminometer and the repeat assay method is again used. The plate is returned afterwards to the ambient incubator.
The plate in the ambient incubator is returned to the luminometer and the repeat assay method is again used. The plate is discarded afterwards.
as §2
Calculate signal stability (S): For each sample, use linear regression to fit In(L)=In(L0)[…] using the four luminescence measurements of the initial microplate with 1X substrate concentrations (Plates 1, 3, 4, and 7). Also calculate the regression coefficient. From the calculated values of T and L0, calculate the integral of luminescence by int(L)=τL0(1−exp(−tf/τ)), where tf is the average time of the last measurement (e.g., 15 hours). The signal stability is calculated as S=(1−int(L)/Litf)^2, where Li is the initial measurement of normalized luminescence with 1× substrate concentration (Plate 1).
[Note: To correct for evaporation, an equation S=(1+K−int(L)/Litf)^2, may be used where 1/K=2(relative change of liquid volume at tf).]
Calculate the reference-normalized values: For the criteria parameter of each sample, a reference-normalized value is determined by calculating the ratio or inverse ratio with the respective reference value. […]

[4] = Control is Luc46-2H3 at 54° C. (=1)
[5] = Control is Luc84-3A6 at 64° C. (=1)
[6] = Control is Luc71-5D4 at 60° C. (=1)

Row | Molecule | Luminescence (Li) [1, 4] | Enzyme stability (tau) [2, 4] | Signal stability (S) [3, 4] | Luminescence (Li) [1, 6] | Enzyme stability (tau) [2, 6] | Signal stability (S) [3, 6] | other results
1 | B1 | 0.57 | 2.2 | 1 |  |  |  | 
2 | B2 | 1.08 | 1.44 | 0.99 |  |  |  | 
3 | B3 | 1 | 1.58 | 1.08 |  |  |  | 
4 | B4 |  |  |  |  |  |  | Luminescence (Li) [1, 5]: 1.1167; Enzyme stability (tau) [2, 5]: 4.7851; Signal stability (S) [3, 5]: 1.0092
5 | B5 |  |  |  | 0.54 | 8.9 | 0.9877 | 
6 | B6 |  |  |  | 1.97 | 1.36 | 1.0094 | 
